Consider 8 molecules from US20260008856A1, “METHODS OF TREATING DISEASE USING ANTI-IL1RAP ANTIBODIES AND ANTIBODY DRUG CONJUGATES” (Bluefin Biomedicine, Inc., priority 2022, published 2026).

The test system of one test is EOL-1. Nature of the test: Flow cytometry binding to endogenous cell line EOL-1. The test is classed as cell-based, human. Also noted: key to binding to EOL-1 by flow cytometry: (−): No binding; (+): Weak binding; (++): Moderate binding; (+++): Strong binding. As to conditions: primary antibody 1 ug/ml. Here is the method: (§1) Staining for flow cytometry was performed in 1× cold PBS with 0.5% BSA. Primary antibodies (1 ug/ml) were incubated with live cells on ice for 30 minutes, after a brief wash, cells were incubated with Alexa Fluro® 488-conjugated anti-human IgG secondary antibody @1:1000 (709-546-149, Jackson ImmunoResearch). Acquisition of the data was performed on a MACSQuant® Flow Cytometers (Miltenyi Biotec) and analyzed with FlowJo software.
(§2) Over 1,000 hits were identified that bind strongly to CHO-human IL1RAP, but not parental CHO cells. 68 clones were selected for molecular cloning. Based on unique CDR3 sequences from the heavy chain variable domain, 35 antibodies from 13 families were confirmed by binding in IL1RAP positive cell lines EOL1 and Karpas 299 (see Table 8) by flow cytometry (MACSQuant® www.miltenybiotec.com).
A general note: In flow cytometry, cells or beads pass a laser one at a time.

A further test concerns Karpas 299. Nature of the test: Flow cytometry binding to endogenous cell line Karpas 299. As to conditions: primary antibody 1 ug/ml. Details: key to binding to Karpas 299 by flow cytometry: (−): No binding; (+): Weak binding; (++): Moderate binding; (+++): Strong binding. In kind it is cell-based, human. Here is the method: as §1, §2
For the next test, the system named is H69. Nature of the test: Flow cytometry binding to endogenous cell line H69. In kind it is cell-based. As to conditions: primary antibody 1 ug/ml. Also noted: key: (−): No binding; (+): Weak binding; (++): Moderate binding; (+++): Strong binding. How it is done: as §1
The next test concerns the target T1, recombinant human IL1RAP (Homo sapiens, UniProt Q9NPH3).
T1 construct: MBP-IL1RAP(S21-T367)-; 8xHis (C); made in house; host or cells: CHO (ExpiCHO transient expression)
Nature of the test: Binding competition binning on Octet. Particulars: Protein A biosensors. How it is done:
Binding Competition binning: Binding competition among different antibodies was determined using a real-time, interferometry assay on an Octet Red™ instrument with Protein A-conjugated biosensors. To assess whether two antibodies competed for binding to a recombinant IL1RAP protein, the assay was performed as follows. Protein A biosensors were first submerged into wells containing 10 ug/mL of individual monoclonal antibodies for 5 minutes. Following the capture step, the biosensors were dipped briefly (15 seconds) into buffer and then any unoccupied sites on the biosensor were saturated by submerging them for 5 minutes into wells containing 100 ug/mL of an irrelevant monoclonal antibody. The Octet™ biosensors were then dipped briefly (15 seconds) in buffer before immersion for 1 minute into wells containing recombinant IL1RAP. The biosensors were dipped briefly (15 seconds) in buffer before immersion for 1 minute into wells containing a second recombinant antibody.
For the control case where the second antibody was the same as the first, there was no increase in signal, because there was no additional binding to the recombinant target.
For the control case where buffer was used instead of the first antibody, no recombinant target bound the non-quenching antibody on the biosensor and no second antibody bound the biosensor.
Selected antibodies were evaluated in pairs for their ability to simultaneously bind recombinant human IL1RAP. The analysis was performed by Octet™ loaded with Protein A Biosensors. A total of five different bins were determined as follows.
In general terms: In BLI a coated tip is dipped into the sample, and binding shifts an interference pattern.

The next test deals with IL-1β signaling. Nature of the test: IL-1 signaling reporter cell assay (HEK-Blue IL-1β cells), IL-1β. The test is classed as cell-based. As to conditions: HEK-Blue IL-1β cells, antibody 1-10 pg/ml, IL-1β 0.5 ng/ml. How it is done: HEK-Blue IL-1β cells (Invivogen, CA) were harvested and plated in technical duplicates at a density of 50,000 cells per well in a 96-well plate. IL1RAP antibodies, or a corresponding human IgG1 control antibody was added to the wells in a concentration range of […]. After incubating cells with antibodies for 30 minutes, IL-1β was added to a final concentration of 0.5 ng/ml, and the plate was incubated overnight. To examine whether any of the antibodies were able to induce IL-1R activation in the absence of IL-1β, samples were incubated with 10 μg/mL antibody without addition of the ligand. The following day, substrate was added to the supernatants, and samples were analyzed for absorbance at 620 nm.

Another test deals with MOLT3. Nature of the test: Flow cytometry binding to endogenous cell line MOLT3. In kind it is cell-based. Details: key: (−): No binding; (+): Weak binding; (++): Moderate binding; (+++): Strong binding. As to conditions: primary antibody 1 ug/ml. Here is the method: as §1

B1: 10C8_15A4: human anti-IL1RAP antibody, VH SEQ ID NO: 106, VL SEQ ID NO: 108 (antibody, V domains shown)
VH: EEQLLESGADLAQPGGSLRLSCAASGFTFSSYAMSWVRQAPGKGLEWVSTIRISGDTTYYADSVKGRFTISRDNSKNTLFLQMNSLRAEDTAVYYCVRDYYNGMDVWGHGTTVTVSS
VL: EIVLTQSPATLSLSPGERATLSCRASQRVSSYLAWYQQKPGQAPRLLIYDASNRATGIPARFSGSGSGTDFTLTISSLEPEDFAVYYCQQRSYWPPAFGQGTKLEIK
Regarding B1, the “binding to EOL-1 by flow cytometry” value with EOL-1 was “(+++)”. The “binding to Karpas 299 by flow cytometry” value with Karpas 299 is “(+++)”. Further, in the test with H69, the “binding to H69 by flow cytometry” value is “(−)”.

B2: 16H2_17D1: human anti-IL1RAP antibody, VH SEQ ID NO: 83, VL SEQ ID NO: 87 (antibody, V domains shown)
VH: EVQLLESGADLVQPGGSLRLSCAASGFTFSSYAMSWVRQAPGKGLEWVSTIRISGGTTYYADSVKGRFTISRDNSKNTLYLQMNSLRAEDTAVYYCVRDYYNGMDVWGQGTTVTVSS
VL: EIVLTQSPATLSLSPGERATLSCRASQRVSSYLAWYQQKPGQAPRLLIYDASNRATGIPARFSGSGSGTDFTLTISSLEPEDFAVYYCQQRSYWPPAFGQGTKLEIK
In the case of B2, the “binding to EOL-1 by flow cytometry” value with EOL-1 is “(+++)”. In the test with Karpas 299, the “binding to Karpas 299 by flow cytometry” value is listed as “(+++)”. For the same molecule, in the test on H69, the “binding to H69 by flow cytometry” value was “(−)”.

B3: 26C5_15B4: human anti-IL1RAP antibody, VH SEQ ID NO: 96, VL SEQ ID NO: 98 (antibody, V domains shown)
VH: EAQLLESGGGLVQPGGSLRLSCAASGFTFSSYAMSWVRQAPGKGLEWVSTISGSGGSTHYADSVKGRFTISRDNSKNTLYLQMNSLRAEDTAVYYCVRDYYYGMDVWGQGTTVTVSS
VL: EIVLTQSPATLSLSPGERATLSCRASQSVSSYLAWYQQKPGQAPRLLIYDASNRATGIPARFSGSGSGTDFTLTISSLEPEDFAVYYCQQRSYWPPTFGQGTKLEIK
B3: the “binding to EOL-1 by flow cytometry” value in the test on EOL-1 is recorded as “(+++)”. Also, the “binding to Karpas 299 by flow cytometry” value in the test with Karpas 299 was “(+++)”. Moreover, the “binding to H69 by flow cytometry” value with H69 is given as “(−)”.

B4: 5G8_18A1: human anti-IL1RAP antibody, VH SEQ ID NO: 1, VL SEQ ID NO: 5 (antibody, V domains shown)
VH: QVELQESGPGLVKPSDTLSLTCTVTGGSISTYYWSWIRQPPGKGLEWIGYIFYTGTTNYNPSLKSRVTISVDASKNQFSLKLNSVTAADTAVYYCARDGSLDYWGQGALVTVSS
VL: DIQMTQSPSSLSASVGDRVTITCRASQSISNYLNWYQQKPGKAPKLLIFVASLLQSGVPSRFSGSGSGTDFTLTISSLQPEDFATYYCQQSYSTPFTFGPGTKLEIK
Turning to B4, the “binding to EOL-1 by flow cytometry” value in the test on EOL-1 was “(+++)”. Also, the “binding to H69 by flow cytometry” value with H69 is recorded as “(−)”. In addition, in the test with recombinant human IL1RAP, the “competition for binding, bin (2)” value is “competed with each other” and the “competition for binding, bin (3)” value is on record as “competed with each other”. The “inhibition of IL1R1 / IL-1 signaling” value with IL-1β signaling is “potent inhibition”.

B5: 16H2_17D2: human anti-IL1RAP antibody, VH SEQ ID NO: 25, VL SEQ ID NO: 29 (antibody, V domains shown)
VH: QVQLVESGGGVVQPGGSLRLSCAASGFTFSSHGMHWVRQAPGKGLEWVAVIWYDGSNKFYTDSVQGRFTISRDNSKNTLNLQMNSLRAEDTAVYYCAREGLRAGYYFDFWGQGTLVTVSS
VL: DIQMTQSPSSLSASVGDRVTITCRASQRISFYSNWYQQKPGKAPKLLIYAASSLQSGVPSRFSGSGSGTDFTLTISSLQPEDFATYFCQQSHSTPLTFGGGTKLEIK
On to B5, for which the “binding to EOL-1 by flow cytometry” value with EOL-1 is “(+++)”. Further, the “competition for binding, bin (2)” value with recombinant human IL1RAP is listed as “competed with each other”. Moreover, the “inhibition of IL1R1 / IL-1 signaling” value with IL-1β signaling is “potent inhibition”.

B6: 36A12_21C1: human anti-IL1RAP antibody, VH SEQ ID NO: 144, VL SEQ ID NO: 147 (antibody, V domains shown)
VH: EVQLVESGGGLVQPGGSLRLSCAASGFTLSFYWMTWVRQAPGKGLEWVANIKQDGNEKNYVDSVKGRFTISKDNAKKSVFLQMNSLRAEDTAVYYCAREGYFGSGYFDYWGQGTLVTVSS
VL: DIQMTQSPSTLSASVGDRVTITCRASQSINSWLAWYQQKPGKAPKLLIYKASTLESGVPSRFSGSGSGTEFTLTISSLQPDDFAPYYCQHYNSYPHTFGQGTKVEIK
For B6, in the test with EOL-1, the “binding to EOL-1 by flow cytometry” value is “(+++)”. For the same molecule, the “binding to Karpas 299 by flow cytometry” value in the test on Karpas 299 was “(+++)”. Also, the “binding to MOLT3 by flow cytometry” value with MOLT3 is on record as “(+)”.

B7: 33H2_21B1: human anti-IL1RAP antibody, VH SEQ ID NO: 140, VL SEQ ID NO: 143 (antibody, V domains shown)
VH: EVQVVESGGGLVQPGGSLRLSCATSGFTFRSYWMTWVRQAPGKGLEWVANIKQDGSERHYVDSVKGRFTISRDNAKTSLYLQMSSLRAEDTAMYYCAREGYYGSGYFDYWGQGTLVTVSS
VL: DIQMTQSPSTLSASVGDRVIITCRASQSISRGLAWYQQKPGKAPKLLIYKASNLESGVPSRFSGSGSGTEFTLTISSLQPDDFAAYYCQQYSYYSHTFGQGTKVEIK
As for B7, the “binding to EOL-1 by flow cytometry” value in the test with EOL-1 is listed as “(+++)”. Moreover, the “binding to Karpas 299 by flow cytometry” value with Karpas 299 is given as “(+++)”. Besides, the “binding to MOLT3 by flow cytometry” value in the test with MOLT3 is given as “(+)”.

B8: 34D1_21B3: human anti-IL1RAP antibody, VH SEQ ID NO: 136, VL SEQ ID NO: 137 (antibody, V domains shown)
VH: QGQLVESGGGVVQPGRSLRLSCAASGFTFSSYTLHWVRQAPGKGLEWVAVIWYDGSNKYYVDSVKGRFTISRDNSKNTLYLQMNSLRAEDTAVYYCAREYGSGSYYNVYYGMDVWGQGTTVTVSS
VL: DIVMTQSPLSLPVTPGEPASISCRSSQSLLHSNGYKYLDWYLQKAGQSPHLLIYLGSNRASGVPDRFSGSGSGTDFTLKISRVEAEDVGFYYCMQTLQIPLTFGGGTKLEIK
Regarding B8, the “binding to EOL-1 by flow cytometry” value in the test with EOL-1 is on record as “(+++)”. The “binding to Karpas 299 by flow cytometry” value with Karpas 299 is on record as “(++)”. Moreover, the “binding to MOLT3 by flow cytometry” value in the test on MOLT3 is on record as “(+)”.
